# From PMC6192195, “Hampered motility promotes the evolution of wrinkly phenotype in Bacillus subtilis” (BMC Evolutionary Biology, 2018)
# Where a chain is given by its changes, count along the chain named. Names and notes keep the numbering of the source.
# T1: SinR-L99S variant (Bacillus subtilis, UniProt P06533 1-111, L99S)
# T1 sequence: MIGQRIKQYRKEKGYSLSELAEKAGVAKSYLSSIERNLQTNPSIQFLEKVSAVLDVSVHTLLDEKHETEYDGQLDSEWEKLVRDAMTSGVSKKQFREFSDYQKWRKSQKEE
# T2: SinR (wild type), master repressor of biofilm-related genes (Bacillus subtilis, UniProt P06533 1-111)
# T2 chain: T1 sequence with S99L
# T3: SinR (Bacillus subtilis 168 (sequence …, UniProt P06533 1-111))
# T3 sequence: T1 sequence with S99L
# T4: SinR-L99S (Bacillus subtilis 168 (sequence …, UniProt P06533 1-111, L99S))
# T4 sequence: T1 sequence
# B1: SinI^9-39 peptide (SinI protein from amino acid 9 to 39) (peptide, UniProt P23308 9-39, looked up)
# peptide: FELDQEWVELMVEAKEANISPEEIRKYLLLN
# notes: SinI, antagonist (anti-repressor) of SinR, Bacillus subtilis, amino acids 9-39; Synthesized with a free amine at the N-terminus and a free acid group at the C-terminus; also called SinI peptide; truncated version of SinI; source: synthetic peptide (peptides&elephants GmbH)
# B2: SinR (wild type), master repressor of biofilm-related genes (natural protein, Bacillus subtilis)
# chain: T1 sequence with S99L
# notes: SinR of Bacillus subtilis; Tetramer by analytical SEC; also called SinR^WT; wildtype SinR; source: E. coli BL21(DE3), purified (Ni-NTA, SEC)
# B3: SinR-L99S variant (natural protein, Bacillus subtilis)
# chain: T1 sequence
# notes: SinR of Bacillus subtilis with L99S, made by two-step PCR mutagenesis of the sinR construct in pET24d; L99S arose spontaneously in the wrinkly isolates (WTWS1, ΔhagWS2) during pellicle growth in the laboratory; the recombinant protein was made by site-directed mutagenesis; Tetramer by analytical SEC; source: E. coli BL21(DE3), purified (Ni-NTA, SEC)
# B4: IR-DNA (SinR operator inverted repeat) (dsDNA)
# DNA 1: TTTGTTCTCTAAAGAGAACTTA
# DNA 2: TAAGTTCTCTTTAGAGAACAAA
# Columns and labels:
# [1] = biological target: SinI (Bacillus subtilis) (UniProt P23308); conditions: cited from earlier work
# Sequence of SinI (Bacillus subtilis) (P23308 whole entry): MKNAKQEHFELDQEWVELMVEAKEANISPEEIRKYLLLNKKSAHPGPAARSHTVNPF
# [2] = biological target: T1, SinR-L99S variant; experiment: ITC; second site (two-site model)
# [3] = biological target: T1, SinR-L99S variant; experiment: ITC; first site (two-site model)
# [4] = biological target: T2, SinR (wild type), master repressor of …; experiment: ITC
# [5] = biological target: B3; experiment: ITC; 250 uM SinI 9-39 peptide titrated into 25 uM SinR or SinR-L99S in the cell, 25 °C, buffer C (20 mM HEPES/NaOH, 500 mM NaCl); apparent KD; one-site model for wild type, two-sites model for L99S; conditions: both partners purified
# [6] = biological target: B2; experiment: as above; conditions: both partners purified
# [7] = biological target: the molecule itself; experiment: SEC; analytical SEC, Superdex 200 Increase 10/300 GL; SinR or SinR-L99S alone (tetrameric state also seen with IR-DNA)
# [8] = biological target: T3, SinR; experiment: ITC; binding site 2 of two-sites model; N2 = 0.143 +/- 0.0123; ITC: buffer C (20 mM HEPES/NaOH, 500 mM NaCl; pH not stated for buffer C, 8.0 for buffers A/B), 25 °C; 30 µM SinR in cell, 150 µM IR-DNA titrated in; conditions: protein: recombinant; tags: C-terminal His6; chain copies: 4; blunt
# [9] = biological target: T4, SinR-L99S; experiment: ITC; binding site 1 of two-sites model; comparable to wild type; ITC: buffer C (20 mM HEPES/NaOH, 500 mM NaCl; pH not stated for buffer C, 8.0 for buffers A/B), 25 °C; 30 µM SinR in cell, 150 µM IR-DNA titrated in; conditions: protein: recombinant; tags: C-terminal His6; chain copies: 4; blunt
# [10] = biological target: T3, SinR; experiment: ITC; binding site 1 of two-sites model; N1 = 0.264 +/- 0.0114; ITC: buffer C (20 mM HEPES/NaOH, 500 mM NaCl; pH not stated for buffer C, 8.0 for buffers A/B), 25 °C; 30 µM SinR in cell, 150 µM IR-DNA titrated in; conditions: protein: recombinant; tags: C-terminal His6; chain copies: 4; blunt
molecule,measurement,setting,value
SinR (from UniProt P06533),Kd,[1],< 10 nM
B1,Ka,[2],1.75e+06 M⁻¹
same,Ka,[3],6.16e+06 M⁻¹
same,Ka,[4],1.41e+08 M⁻¹
same,KD site 1,[5],~162 nM
same,KD site 2,[5],~571 nM
same,dH binding event 1,[5],-3.93 ± 1.45 kcal/mol
same,dH binding event 2,[5],-15.2 kcal/mol
same,stoichiometry N,[5],~1.35
same,Kd,[6],~7 nM
same,dH,[6],-3.75 ± 0.136 kcal/mol
same,stoichiometry N,[6],1.2 ± 0.02
B2,stoichiometry N,[7],4
B3,stoichiometry N,[7],4
B4,Kd,[8],~6 nM
same,Kd,[9],~99 nM
same,Kd,[10],~121 nM
